Measured values from FireProtDB (doi:10.1110/ps.041111405).
Several values for one entry are separate records, joined by “and”; a condition that tells them apart may be missing. Identical values can stand only once.

B1: Gamma-crystallin D, P07320 (parent)
chain: MGKITLYEDRGFQGRHYECSSDHPNLQPYLSRCNSARVDSGCWMLYEQPNYSGLQYFLRRGDYADHQQWMGLSDSVRSCRLIPHSGSHRIRLYEREDYRGQMIEFTEDCSCLQDRFRFNEIHSLNVLEGSWVLYELSNYRGRQYLLMPGDYRRYQDWGATNARVGSLRRVIDFS

Variants of: B1
Conditions: Homo sapiens; pH 7; 37 °C; GdnHCl; Fluorescence; Sodium phosphate 10 mM; transition: 3; structure 1HK0; whole UniProt chain shown

| Variant | ddG of mutation (higher = less stable) | denaturant m value | denaturant midpoint (higher = more stable) | unfolding free energy |
| --- | --- | --- | --- | --- |
| L145A | 1.2 kcal/mol and 1.4 kcal/mol | 3.9 kcal/mol/M and 2.9 kcal/mol/M | 1.6 M and 2.6 M | 6.5 kcal/mol and 7.5 kcal/mol |
| F57A |  | 3.9 kcal/mol/M and 3.2 kcal/mol/M | 1.6 M and 2.9 M | 6.1 kcal/mol and 9.3 kcal/mol |
| V132A | 2.7 kcal/mol and 1.1 kcal/mol | 3.7 kcal/mol/M and 3.1 kcal/mol/M | 1.3 M and 2.5 M | 5 kcal/mol and 7.8 kcal/mol |
| I82A |  | 3.7 kcal/mol/M and 3 kcal/mol/M | 1.5 M and 2.9 M | 5.3 kcal/mol and 8.7 kcal/mol |
| V170A | -1.3 kcal/mol | 4 kcal/mol/M | 2.5 M | 10.2 kcal/mol |
| M44A |  | 3.7 kcal/mol/M and 2.8 kcal/mol/M | 2.2 M and 2.9 M | 7.7 kcal/mol and 8.1 kcal/mol |
